Source: patent US20130230533A1 (Regeneron, published 2013)
Substitutions are numbered along the chain they refer to. Numbers in names are those of the source.

T1: Monomeric human CD48-mmH (human)
T1 chain: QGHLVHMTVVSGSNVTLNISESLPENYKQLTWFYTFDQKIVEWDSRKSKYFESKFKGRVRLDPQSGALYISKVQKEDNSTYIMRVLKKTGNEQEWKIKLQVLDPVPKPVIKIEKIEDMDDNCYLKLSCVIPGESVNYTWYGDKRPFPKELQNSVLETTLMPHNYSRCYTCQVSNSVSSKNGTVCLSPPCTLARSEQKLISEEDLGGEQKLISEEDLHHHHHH

T2: Dimeric human CD48-mFc (human)
T2 construct: the whole entry is the construct; also called hCD48-mFc
T2 chain: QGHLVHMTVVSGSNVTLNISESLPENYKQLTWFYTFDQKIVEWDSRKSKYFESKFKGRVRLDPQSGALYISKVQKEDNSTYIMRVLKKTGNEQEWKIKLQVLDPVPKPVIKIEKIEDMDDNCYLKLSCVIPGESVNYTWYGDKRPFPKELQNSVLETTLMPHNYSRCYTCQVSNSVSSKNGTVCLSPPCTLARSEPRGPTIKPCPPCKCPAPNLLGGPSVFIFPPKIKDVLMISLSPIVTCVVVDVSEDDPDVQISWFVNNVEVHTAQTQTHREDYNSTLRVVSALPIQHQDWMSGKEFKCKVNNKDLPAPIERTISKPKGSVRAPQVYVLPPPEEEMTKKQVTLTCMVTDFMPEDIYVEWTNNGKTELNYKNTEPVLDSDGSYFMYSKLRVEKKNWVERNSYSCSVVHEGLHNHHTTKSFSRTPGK

T3: Dimeric human CD48-mFc (human)
T3 chain: T2 chain

T4: Monomeric human CD48-mmH (human)
T4 construct: also called soluble CD48 expressed with a myc-myc-hexa-histidine C-terminal tag [mmH]
T4 chain: T1 chain

B1: H2M1707N (antibody, V domains shown)
VH: EGQLLESGGGLAQPGGSLRLSCAASGITFGRYAMSWVRQAPGKGLEWVSLISGSGGSTYHADSVKGRFTISRDNSKNTLYLQMNSLRAEDTAVYYCAIYNNYNWFDPWGQGTLVTVSS
VL: EIVLTQSPGTLSLSPGERATLSCRASQSVSSNYLAWYQQKPGQAPRLLIYDASSRATDIPDRFSGSGSGTDFTLTISRLEPEDFAVYYCQQYGSSPRTFGQGTKVEIK
notes: Human variable domains, mouse IgG2 Fc (H2M)
B2: H2M1709N (antibody, mouse IgG2, V domains shown)
VH: QVQLVQSGAEVKKPGASVKVSCKVSGYTLTELSIHWVRQAPGKGLEWMGGFDPEDGETIYAQKFQGRVNMTEDTSTDTAYMELSSLRSDDTTVYFCASLLPYFDYWGQGTLVTVSS
VL: B1 VL with N32S, D51G, D58G, T75S, Y88F, P96M, R97Y, V105L
notes: as for B1
B3: H2M1710N (antibody, mouse IgG2, V domains shown)
VH: QVQLVQSGADMKKPGASVRVSCKASGYTFTDYFIHWVRQAPGQGPEWMGWINPDSGATNYAQQFQGRVTMTRDTSISATYMEMSRLRSDDTAVFYCARDKDGSGWYLDDWGQGTLVTVSS
VL: EIVLTQSPATLSLSPGERATLSCRASQSVNIYLAWYQQKPGQAPRLLIYDASNRASGIPARFSGSGSGTDFTLTISSLEPEDFAVYYCQQRSNWPPSITFGQGTRLEIK
notes: as for B1
B4: H2M1763N (antibody, mouse IgG2, V domains shown)
VH: QIQLVQSGAEMKRPGTSVKVSCKASGYTFTSYGINWVRQAPGQGLEWMGWISAYNGDTNYAQKLQGRVTMTTDTSTTTAYMEVRSLRSDDTAVYYCARFLTGTKDYYYGMDVWGQGTTVTVSS
VL: DIQMTQSPSSLSASVGDRVTITCQASQDISNFLNWYQQKPGKAPDLLINDASILETGVPSRFSGSGSGTDFTLTINNLQPEDIATYYCQQYDNLPLTFGGGTKVEIK
notes: as for B1
B5: H2M1712N (antibody, mouse IgG2, V domains shown)
VH: B4 VH with T30S, Y106L
VL: B4 VL with N77S
notes: as for B1
B6: H2M1713N (antibody, mouse IgG2, V domains shown)
VH: QVQLVQSGAEVKKPGASVKVSCKASGHTFTNYYIHWVRQAPGQGLEWMGITNPNDGNTRYAQKFQGRISMTWDTSTSTVFMELSSLKSEDTAVYYCAGLRYWFFDLWGRGTPVTVSS
VL: DIQMTQSPSSVSASVGDRVTITCRASQDISSWLAWYQQKPGKAPNLLIFAASSLQSGVPSRFSGSGSGTDFTLTISSLQPEDFGTYYCQQTDNFPRTFGQGTKVEIN
notes: as for B1
B7: H2M1764N (antibody, mouse IgG2, V domains shown)
VH: QVQLVESGGGVVQPGRSLRLSCAASGFTFSDYGMHWVRQAPGKGLEWVAVIWNDGSNKNYADSVKGRFSISSDSSKNTLYLHMNSLRAEDTAVYYCARSLYSTSPWYFDLWGRGTLVTVSS
VL: not shown
notes: as for B1
B8: H3M1766N (antibody, V domains shown)
VH: EVQLVESGGGLAQPGGSLRLSCAASGFTFSSYEMNWVRQAPGKGLEWVSYITTSGSTIYYADSVKGRFTMSRDNAKKSLYLEMNSLRAEDTAVYYCAREECTNGVCYKDYQYYGMDVWGQGTTVTVSS
VL: DIQMTQSPSSVSASVGDRVTITCRASQNINTWLAWYQQKPGKVPKLLIYAASSLQSGVPSRFSGSGSGTDFTLTISSLQPEDFATYYCQQANSFPLTFGGGTKVEIK
notes: Human variable domains, mouse Fc (H3M); also called H2M1766N
B9: H2M1811N (antibody, mouse IgG2, V domains shown)
VH: QVQLVQSGAEAREPGASVRVSCKASGYTFTDYFIHWVRQAPGQGLEWMGWINPNSGATNFAQKFQGRVTMTRDTSLITAYMDLSRLKSDDAAVFYCARDVDGSGWYLDFWGQGTLVTVSS
VL: B3 VL with N30S, S56T, S77R, N93D
notes: as for B1
B10: H2M1712N (antibody, mouse IgG2, V domains shown)
VH: B4 VH with T30S, Y106L
VL: B4 VL with N77S
notes: Human variable domains, mouse IgG2 Fc (prefix H2M)
B11: H2M1713N (antibody, mouse IgG2, V domains shown)
VH: B6 VH
VL: B6 VL
notes: as for B10
B12: H4H1713N (antibody, human IgG4, V domains shown)
VH: B6 VH
VL: B6 VL
notes: Human IgG4 Fc (prefix H4H)
B13: H4H1763N (antibody, human IgG4, V domains shown)
VH: B4 VH
VL: B4 VL
notes: Human IgG4 Fc (prefix H4H)
B14: H2M1764N (antibody, mouse IgG2, V domains shown)
VH: B7 VH
VL: not shown
notes: as for B10
B15: H4H1764N (antibody, human IgG4, V domains shown)
VH: B7 VH
VL: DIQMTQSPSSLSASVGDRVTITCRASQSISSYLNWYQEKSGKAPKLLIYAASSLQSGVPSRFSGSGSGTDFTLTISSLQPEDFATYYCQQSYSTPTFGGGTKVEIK
notes: Human IgG4 Fc (prefix H4H)

Target: T1, Monomeric human CD48-mmH
Test: SPR (Biacore), antibody captured by anti-Fc, CD48 in solution, 37 C
Method: (§1) Measurements were conducted on a T100-2 BIACORE™ instrument (Biacore Life Sciences division of GE Healthcare, Piscataway, N.J.). Antibodies (either with mouse Fc [designated “H2M” or “H3M”] or human IgG4 Fc [designated “H4H”]) were captured through an anti-Fc chip surface, and CD48 was flowed over the surface either in a monomeric (soluble CD48 expressed with a myc-myc-hexa-histidine C-terminal tag [mmH]) or dimeric (soluble CD48 expressed with a C-terminal Fc fusion [mFc]) format.
(§2) The soluble CD48 was applied to the flow cell in separate injections at different concentrations, and kinetic association (kₐ) and dissociation (kd) rate constants were determined by fits to the kinetic binding data using Biacore software. Binding dissociation equilibrium constants and dissociation half-times were calculated from the kinetic rate constants as: KD=kd/kₐ; t_{1/2}=(ln 2/kd) (units: ka=M⁻¹*s⁻¹; kd=s⁻¹; KD=M; T½=min) (Tables 3-6).

Row | Binder | Kd [pM] | T½ [min] | koff [s⁻¹] | kon [M⁻¹ s⁻¹]
1 | B1 | 14700 | 4 | 0.00314 | 214000
2 | B2 | 35100 | 0 | 0.04 | 1.14e+06
3 | B3 | 153000 | 2 | 0.0052 | 34000
4 | B4 | 13500 | 1 | 0.0201 | 1.49e+06
5 | B5 | 16600 | 1 | 0.014 | 846000
6 | B6 | 2740 | 18 | 0.000644 | 235000
7 | B7 | 94700 | 1 | 0.016 | 169000
8 | B8 | 3840 | 19 | 0.00062 | 161000
9 | B9 | 22700 | 4 | 0.00295 | 130000

Target: T2, Dimeric human CD48-mFc
Test: as above
Method: as §1, §2

Row | Binder | Kd [pM] | T½ [min] | koff [s⁻¹] | kon [M⁻¹ s⁻¹]
10 | B1 | 247 | 51 | 0.000227 | 920000
11 | B2 | 248 | 31 | 0.000377 | 1.52e+06
12 | B3 | 885 | 27 | 0.000426 | 481000
13 | B4 | 293 | 13 | 0.000883 | 3.02e+06
14 | B5 | 252 | 17 | 0.000685 | 2.72e+06
15 | B6 | 66.3 | 140 | 8.27e-05 | 1.25e+06
16 | B7 | 586 | 28 | 0.000412 | 702000
17 | B8 | 342 | 36 | 0.000324 | 949000
18 | B9 | 966 | 45 | 0.000256 | 265000

Target: T3, Dimeric human CD48-mFc
Test: SPR (Biacore T100), 25 C, antibody captured by anti-Fc, dimeric CD48-mFc in solution
Method: as §1, §2

Row | Binder | Kd [pM] | T½ [min] | koff [s⁻¹] | kon [M⁻¹ s⁻¹]
19 | B10 | 288 | 22 | 0.00053 | 1.84e+06
20 | B11 | 13.4 | 1040 | 1.11e-05 | 826000
21 | B12 | 21.2 | 609 | 1.9e-05 | 894000
22 | B13 | 26.8 | 211 | 5.48e-05 | 2.05e+06
23 | B14 | 1030 | 43 | 0.000266 | 259000
24 | B15 | 226 | 191 | 6.05e-05 | 268000

Target: T4, Monomeric human CD48-mmH
Test: SPR (Biacore T100), 25 C, antibody captured by anti-Fc, monomeric CD48-mmH in solution
Method: as §1, §2

Row | Binder | Kd [pM] | T½ [min] | koff [s⁻¹] | kon [M⁻¹ s⁻¹]
25 | B10 | 11800 | 2 | 0.00619 | 524000
26 | B11 | 1350 | 53 | 0.000217 | 161000
27 | B12 | 893 | 67 | 0.000174 | 194000
28 | B13 | 8200 | 2 | 0.00631 | 769000
29 | B14 | 23500 | 4 | 0.00285 | 121000
30 | B15 | 23600 | 5 | 0.00248 | 105000
